Assay [1] has as its target T1, Human IL-1R-I-Fc (Creative BioMart cat. no. IL1RI-771H) (human, UniProt P14778 18-332, limits assumed).
T1 construct: Bought protein; also called hIL-1R-I-Fc; hIL-1RI-Fc; not shown: Fc part of the bought fusion
T1 sequence (looked up): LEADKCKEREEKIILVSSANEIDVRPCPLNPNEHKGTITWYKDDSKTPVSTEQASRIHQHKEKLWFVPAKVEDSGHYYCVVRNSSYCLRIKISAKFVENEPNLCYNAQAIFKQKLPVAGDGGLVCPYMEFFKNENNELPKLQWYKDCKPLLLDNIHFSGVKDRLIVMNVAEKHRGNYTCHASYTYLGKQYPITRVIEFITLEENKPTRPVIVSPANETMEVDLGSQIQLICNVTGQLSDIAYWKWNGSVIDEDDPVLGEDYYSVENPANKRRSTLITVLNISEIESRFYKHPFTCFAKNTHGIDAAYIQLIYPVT
Briefly: ELISA screening, periplasmic extract. A general note: ELISA stands for enzyme-linked immunosorbent assay.

Assay [2] has as its target T1, Human IL-1R-I-Fc (Creative BioMart cat. …). Briefly: ELISA titration; Z-ABD periplasmic extract, hIL-1R-I-Fc 100-0.01 nM.

From patent publication US20250066451A1 (SWEDISH ORPHAN BIOVITRUM AB PUBL, published 2025) come the findings set out here.

B1: ABD001 (wild type albumin binding domain), periplasmic extract (other)
chain: LAEAKVLANRELDKYGVSDYYKNLINNAKTVEGVKALIDEILAALP
notes: Negative control; also called ABD negative control
For B1, the binding result in assay [1] is reported as “no binding (tested: 1 nM hIL-1R-I-Fc)”.

B2: Z12917 as Z-ABD fusion (periplasmic extract) (designed binder)
chain: AQHDEALEVDAKYAKEARQAYAEIYLLPNLTRRQYTAFIRKLLDDPSQSSELLSEAKKLNDSQAPKVDYVLAEAKVLANRELDKYGVSDYYKNLINNAKTVEGVKALIDEILAALPYVPG
A word on the EC50: it is the midpoint of the concentration-response curve. Low values mean a more potent agent, high ones a less potent agent. Turning to B2, in assay [2], the EC50 worked out at 0.33 nM.
